The values that follow are results of earlier work, collected in publication PMC6431256.

One may read the Kd as the free concentration of one partner at which half of the binding sites on the other are occupied at equilibrium, for simple one-to-one binding.

The target of this series is tau peptide (Homo sapiens) (UniProt P10636). The experiment in a line: ITC. (In general: ITC needs no label: the signal is the heat of the interaction.)
tau peptide (Homo sapiens), sequence (P10636 2-758): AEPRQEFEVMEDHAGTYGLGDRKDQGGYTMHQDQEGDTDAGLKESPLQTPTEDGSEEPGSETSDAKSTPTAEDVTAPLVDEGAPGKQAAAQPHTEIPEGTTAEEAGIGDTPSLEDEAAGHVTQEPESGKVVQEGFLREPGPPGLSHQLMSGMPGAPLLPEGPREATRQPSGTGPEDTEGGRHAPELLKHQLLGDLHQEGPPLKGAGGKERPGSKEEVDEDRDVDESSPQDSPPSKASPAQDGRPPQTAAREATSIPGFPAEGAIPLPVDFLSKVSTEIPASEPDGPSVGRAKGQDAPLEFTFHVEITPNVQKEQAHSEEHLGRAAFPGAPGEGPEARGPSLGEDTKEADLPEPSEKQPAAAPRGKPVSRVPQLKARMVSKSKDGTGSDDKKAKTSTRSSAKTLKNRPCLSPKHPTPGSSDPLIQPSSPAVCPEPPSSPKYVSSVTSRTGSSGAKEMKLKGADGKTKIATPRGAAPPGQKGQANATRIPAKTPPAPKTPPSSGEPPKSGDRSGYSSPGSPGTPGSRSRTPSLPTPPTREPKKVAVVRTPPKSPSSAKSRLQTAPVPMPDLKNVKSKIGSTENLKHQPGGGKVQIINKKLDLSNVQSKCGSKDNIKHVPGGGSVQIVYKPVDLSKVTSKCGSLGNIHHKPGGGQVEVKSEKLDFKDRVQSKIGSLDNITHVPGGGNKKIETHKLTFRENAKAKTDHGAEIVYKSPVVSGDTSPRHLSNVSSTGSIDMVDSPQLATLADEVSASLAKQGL

Pin1, sequence (Q13526 whole entry): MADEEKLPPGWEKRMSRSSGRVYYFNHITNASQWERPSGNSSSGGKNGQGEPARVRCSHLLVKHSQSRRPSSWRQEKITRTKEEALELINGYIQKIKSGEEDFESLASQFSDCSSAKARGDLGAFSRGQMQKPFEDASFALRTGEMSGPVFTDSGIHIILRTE

On to Pin1 (from UniProt Q13526), for which the Kd was 200 µM.
